{"source": "patent US20140065645", "proteins": {"B1": {"name": "Tobacco etch virus (TEV) protease (protein)", "chain": "GESLFKGPRDYNPISSTICHLTNESDGHTTSLYGIGFGPFIITNKHLFRRNNGTLLVQSLHGVFKVKNTTTLQQHLIDGRDMIIIRMPKDFPPFPQKLKFREPQREERICLVTTNFQTKSMSSMVSDTSCTFPSSDGIFWKHWIQTKDGQCGSPLVSTRDGFIVGIHSASNFTNTNNYFTSVPKNFMELLTNQEAQQWVSGWRLNADSVLWGGHKVFMSKPEEPFQPVKEATQLMNELVYSQ"}}, "target": "T1, FITC-labeled polypeptide linker, coupled to a bead", "T1 chain": "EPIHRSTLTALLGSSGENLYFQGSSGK"}
{"protein": "B1", "values": [{"measurement": "Intensity of Signal (FITC fluorescence of the linker-bead complex after 1 hour with TEV protease, 1:1 by mass)", "value": 10.3}, {"measurement": "Intensity of Signal (FITC fluorescence of the linker-bead complex after 1 hour with TEV protease, 1:2 by mass)", "value": 9}, {"measurement": "Ratio of Signal/Background Signal (1:1 TEV protease)", "value": 1.24}, {"measurement": "Ratio of Signal/Background Signal (1:2 TEV protease)", "value": 1.08}, {"measurement": "cleavage of the polypeptide linker", "value": "Most polypeptide linkers were cleaved when the mass of the added enzyme was twice the mass of the polypeptide linker."}]}
